{"source": "patent US20240092930A1", "about": "(MABWELL SHANGHAI BIOSCIENCE, published 2024)", "binders": {"B1": {"name": "h23-12-45 (antibody, human IgG1, kappa, V domains shown)", "VH": "QVQLVQSGAEVKKPGASVKVSCKASGYTFTSYWMHWVRQAPGQGLEWMGEITPSDGYTSYNQKFKGRVTITRDTSTSTAYMELSSLRSEDTAVYYCARGHGNYVSFDYWGQGTLVTVSS", "VL": "DIQMTQSPSSLSASVGDRVTITCRASQDISNYLNWYQQKPGKAPKLLIYYTSRLHSGVPSRFSGSGSGTDFTLTISSLQPEDFATYFCQQGYSLPPYTFGQGTKLEIKR"}, "B2": {"name": "h23-12-47 (antibody, human IgG1, kappa, V domains shown)", "VH": "B1 VH with G56N, N61A", "VL": "B1 VL"}, "B3": {"name": "h23-12-48 (antibody, human IgG1, kappa, V domains shown)", "VH": "B1 VH with G56N, H100E", "VL": "B1 VL"}, "B4": {"name": "h23-12-49 (antibody, human IgG1, kappa, V domains shown)", "VH": "B1 VH with G56N, H100Q", "VL": "B1 VL"}, "B5": {"name": "h23-12-46 (antibody, human IgG1, kappa, V domains shown)", "VH": "B1 VH with G56N, T58G", "VL": "B1 VL"}, "B6": {"name": "h4-3-2 (antibody, human IgG1, kappa, V domains shown)", "VH": "EVQLVQSGPEVKKPGASVKVSCKASGFTFTDYVIGWVRQAPGQGLEWIGEIYLGSGTIYYAEKFKGRVTMTADTSTSTAYMELSSLRSEDTAVYYCARGSIFPFDYWGQGTLVTVSS", "VL": "DIQLTQSPSSLSASVGDRVTITCSASSSVSYMYWYQQKPGKAPKLLIYDTSTLASGVPSRFSGSGSGTDFTLTISSLQPEDFATYYCQQWSSYPYTFGQGTKLEIKR"}, "B7": {"name": "h4-3-5 (antibody, human IgG1, kappa, V domains shown)", "VH": "B6 VH with A61T", "VL": "B6 VL with S24R"}, "B8": {"name": "h4-3-9 (antibody, human IgG1, kappa, V domains shown)", "VH": "B6 VH with A61T", "VL": "B6 VL with T50A"}, "B9": {"name": "h4-3-14 (antibody, human IgG1, kappa, V domains shown)", "VH": "B6 VH", "VL": "B6 VL with A54Q"}, "B10": {"name": "h4-3-12 (antibody, human IgG1, kappa, V domains shown)", "VH": "B6 VH with A61T, P103Y", "VL": "B6 VL with T50A"}, "B11": {"name": "h4-3-4 (antibody, human IgG1, kappa, V domains shown)", "VH": "B6 VH with A61T, P103Y", "VL": "B6 VL"}, "B12": {"name": "h4-3-10 (antibody, human IgG1, kappa, V domains shown)", "VH": "B6 VH", "VL": "B6 VL with T50A"}, "B13": {"name": "h4-3-20 (antibody, human IgG1, kappa, V domains shown)", "VH": "B6 VH with A61T, P103Y", "VL": "B6 VL with S91N"}, "B14": {"name": "h4-3-15 (antibody, human IgG1, kappa, V domains shown)", "VH": "B6 VH with A61T, E62Q", "VL": "B6 VL with A54Q"}, "B15": {"name": "h4-3-11 (antibody, human IgG1, kappa, V domains shown)", "VH": "B6 VH with A61T, E62Q", "VL": "B6 VL with T50A"}, "B16": {"name": "h4-3-17 (antibody, human IgG1, kappa, V domains shown)", "VH": "B6 VH with A61T", "VL": "B6 VL with S91N"}, "B17": {"name": "h4-3-3 (antibody, human IgG1, kappa, V domains shown)", "VH": "B6 VH with A61T, E62Q", "VL": "B6 VL"}, "B18": {"name": "h4-3-16 (antibody, human IgG1, kappa, V domains shown)", "VH": "B6 VH with A61T, P103Y", "VL": "B6 VL with A54Q"}, "B19": {"name": "h4-3-6 (antibody, human IgG1, kappa, V domains shown)", "VH": "B6 VH", "VL": "B6 VL with S24R"}, "B20": {"name": "h4-3-13 (antibody, human IgG1, kappa, V domains shown)", "VH": "B6 VH with A61T", "VL": "B6 VL with A54Q"}, "B21": {"name": "h4-3-18 (antibody, human IgG1, kappa, V domains shown)", "VH": "B6 VH", "VL": "B6 VL with S91N"}, "B22": {"name": "h4-3-7 (antibody, human IgG1, kappa, V domains shown)", "VH": "B6 VH with A61T, E62Q", "VL": "B6 VL with S24R"}, "B23": {"name": "h4-3-19 (antibody, human IgG1, kappa, V domains shown)", "VH": "B6 VH with A61T, E62Q", "VL": "B6 VL with S91N"}, "B24": {"name": "h4-3-8 (antibody, human IgG1, kappa, V domains shown)", "VH": "B6 VH with A61T, P103Y", "VL": "B6 VL with S24R"}, "B25": {"name": "h11-4-1 (antibody, human IgG1, kappa, V domains shown)", "VH": "QVQLVQSGAEVKKPGASVKVSCKASGYTFTSYWINWVRQAPGQGLEWMGNIYPSNSYTNYNQKFKDRVTMTRDTSTSTVYMELSSLRSEDTAVYYCARYRSDGFAYWGQGTLVTVSS", "VL": "EIVLTQSPATLSLSPGERATLSCRASQNIGTSIHWYQQKPGQAPRLLIYFASESISGIPARFSGSGSGTDFTLTISSLEPEDFAVYYCQQSNSWPFTFGGGTKVEIKR", "notes": "also called CDR grafted antibody 11-4"}, "B26": {"name": "h11-4-10 (antibody, human IgG1, kappa, name in Kabat numbering, V domains shown)", "VH": "B25 VH with Q1E, A97S, R98S, D102E", "VL": "B25 VL with H34E, Y49E"}, "B27": {"name": "h11-4-5 (antibody, human IgG1, kappa, name in Kabat numbering, V domains shown)", "VH": "B25 VH", "VL": "B25 VL with Y49E"}, "B28": {"name": "h11-4-6 (antibody, human IgG1, kappa, name in Kabat numbering, V domains shown)", "VH": "B25 VH with A97S", "VL": "B25 VL with Y49E"}, "B29": {"name": "h11-4-9 (antibody, human IgG1, kappa, name in Kabat numbering, V domains shown)", "VH": "B25 VH with Q1E, A97S, R98S", "VL": "B25 VL with H34E, Y49E"}, "B30": {"name": "h11-4-3 (antibody, human IgG1, kappa, V domains shown)", "VH": "B25 VH with R98S", "VL": "B25 VL"}, "B31": {"name": "h11-4-8 (antibody, human IgG1, kappa, name in Kabat numbering, V domains shown)", "VH": "B25 VH with Q1E, A97S, R98S", "VL": "B25 VL with Y49E"}, "B32": {"name": "h11-4-4 (antibody, human IgG1, kappa, V domains shown)", "VH": "B25 VH with Q1E, A97S, R98S", "VL": "B25 VL"}, "B33": {"name": "h11-4-11 (antibody, human IgG1, kappa, name in Kabat numbering, V domains shown)", "VH": "B25 VH with Q1E, A97S, R98S, D102G", "VL": "B25 VL with H34E, Y49E"}, "B34": {"name": "h11-4-13 (antibody, human IgG1, kappa, name in Kabat numbering, V domains shown)", "VH": "B25 VH with Q1E, A97S, R98S", "VL": "B25 VL with H34S, Y49E"}, "B35": {"name": "h11-4-7 (antibody, human IgG1, kappa, name in Kabat numbering, V domains shown)", "VH": "B25 VH with R98S", "VL": "B25 VL with Y49E"}, "B36": {"name": "h11-4-12 (antibody, human IgG1, kappa, name in Kabat numbering, V domains shown)", "VH": "B25 VH with Q1E, A97S, R98S, G103A", "VL": "B25 VL with H34E, Y49E"}, "B37": {"name": "h11-4-2 (antibody, human IgG1, kappa, V domains shown)", "VH": "B25 VH with A97S", "VL": "B25 VL"}}, "note": "Substitutions are numbered along the chain they refer to.", "data": [{"target": "T1, recombinant human Trop-2-his protein (ACCESSION NO.: NP_002344.2, AA 1-274) (human, UniProt P09758 27-274)", "T1 construct": "range 27-274; also called recombinant human Trop-2 protein; recombinant human Trop-2 extracellular domain; not shown: his tag", "T1 sequence (looked up)": "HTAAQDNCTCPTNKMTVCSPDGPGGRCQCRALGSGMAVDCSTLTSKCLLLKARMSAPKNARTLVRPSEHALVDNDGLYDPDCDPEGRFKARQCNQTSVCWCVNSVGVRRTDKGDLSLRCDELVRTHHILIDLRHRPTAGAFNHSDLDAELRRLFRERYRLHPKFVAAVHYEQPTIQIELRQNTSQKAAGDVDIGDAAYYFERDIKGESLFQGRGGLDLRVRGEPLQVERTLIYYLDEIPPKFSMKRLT", "experiment": "BLI, antibody on AHC sensor, Trop-2-his 60 nM", "procedure": "(§1) 5-6 days after cell transfection, culture supernatants were purified through ProA affinity chromatography column to obtain different humanized antibodies. Affinities of the obtained antibodies were determined by an assay including capturing Fc fragments of the antibodies with anti-human IgG Fc capture (AHC) biosensors using Octet QKe system instrument from Fortebio. For the assay, each of the humanized antibodies and control antibody Sacituzumab was diluted to 4 μg/ml in PBS, and was allowed to flow through the surface of an AHC biosensor (Cat.: 18-0015, PALL) for 120 s. Recombinant human Trop-2-his protein (ACCESSION NO.: NP_002344.2, AA 1-274) was used as a mobile phase, and its concentration was 60 nM. The binding time was 100 s and the dissociation time was 300 s. When the assay was finished, data from which the response values of blank control had been deducted were fitted to a 1:1 Langmuir binding model using software, and then kinetic constants for antigen-antibody binding were calculated.\nAffinities of the antibodies obtained from the combinations of mutants of murine antibody 23-12, chimeric antibody ch23-12 and control antibody Sacituzumab to recombinant human Trop-2-his protein were determined by ForteBijo (Table 5).", "units": {"Kd": "nM"}, "values": [{"binder": "B1", "Kd": 4.09}, {"binder": "B2", "Kd": 2.31}, {"binder": "B3", "Kd": 0.405}, {"binder": "B4", "Kd": 2.99}, {"binder": "B5", "Kd": 0.312}]}, {"target": "T1, recombinant human Trop-2-his protein …", "experiment": "BLI, antibody on AHC sensor, Trop-2-his 60 nM", "remark": "another data set of the same source", "procedure": "as §1\nAffinities of the antibodies obtained from the combinations of mutants of murine antibody 23-12, chimeric antibody ch4-3 and control antibody Sacituzumab to recombinant human Trop-2-his protein were determined by ForteBio (Table 8).", "units": {"Kd": "nM"}, "values": [{"binder": "B6", "Kd": 0.411}, {"binder": "B7", "Kd": 0.273}, {"binder": "B8", "Kd": 0.317}, {"binder": "B9", "Kd": 0.571}, {"binder": "B10", "Kd": 1.03}, {"binder": "B11", "Kd": 0.636}, {"binder": "B12", "Kd": 0.763}, {"binder": "B13", "Kd": 0.892}, {"binder": "B14", "Kd": 0.687}, {"binder": "B15", "Kd": 0.802}, {"binder": "B16", "Kd": 0.542}, {"binder": "B17", "Kd": 0.501}, {"binder": "B18", "Kd": 1.53}, {"binder": "B19", "Kd": 0.397}, {"binder": "B20", "Kd": 0.281}, {"binder": "B21", "Kd": 0.671}, {"binder": "B22", "Kd": 0.466}, {"binder": "B23", "Kd": 0.599}, {"binder": "B24", "Kd": 0.862}]}, {"target": "T1, recombinant human Trop-2-his protein …", "experiment": "BLI, antibody on AHC sensor, Trop-2-his 60 nM", "remark": "another data set of the same source", "procedure": "as §1\nAffinities of the antibodies obtained from the combinations of mutants of murine antibody 11-4, chimeric antibody ch11-4 and control antibody Sacituzumab to recombinant human Trop-2-his protein were determined by ForteBio (Table 11).", "units": {"Kd": "nM"}, "values": [{"binder": "B25", "Kd": 2.16}, {"binder": "B26", "Kd": 0.351}, {"binder": "B27", "Kd": 1.08}, {"binder": "B28", "Kd": 0.952}, {"binder": "B29", "Kd": 0.301}, {"binder": "B30", "Kd": 0.868}, {"binder": "B31", "Kd": 0.222}, {"binder": "B32", "Kd": 0.811}, {"binder": "B33", "Kd": 0.375}, {"binder": "B34", "Kd": 0.211}, {"binder": "B35", "Kd": 0.803}, {"binder": "B36", "Kd": 0.282}, {"binder": "B37", "Kd": 0.991}]}]}
